This note sets out measurements from PMC10747570.

For this assay, the target named is Hibiscus green spot virus movement protein BMB2 (Hibiscus green spot virus). The experiment in a line: FRET or BRET; FRET-FLIM: GFP fluorescence lifetime measured in PAMBs of N. benthamiana leaf cells coexpressing BMB2-GFP (donor) and BMB2-mRFP (acceptor), 3 dpi; control without acceptor: BMB2-GFP with non-fused BMB2.

Substance “Hibiscus green spot virus movement protein BMB2 (natural protein)” had an FRET efficiency of 69.8% and a GFP excited-state lifetime with the acceptor of 0.74 ns.
